pEC50: −log10 of the molar value. Like-named read-outs stand apart in the source and are kept apart here.
What was measured:
EBOV GPdTM (Ebola virus) [1] = biological target: EBOV GPdTM (Ebola virus) (UniProt Q05320)
SUDV GPdTM (Sudan virus) [2] = biological target: SUDV GPdTM (Sudan virus) (UniProt Q66814)
EBOV GPdTM (Ebola virus) [3] = biological target: EBOV GPdTM (Ebola virus) (UniProt Q05320); remark: listed apart in the source
RESTV GP (Reston virus) [4] = biological target: RESTV GP (Reston virus) (UniProt Q66799)
SUDV GPdTM (Sudan virus) [5] = biological target: SUDV GPdTM (Sudan virus) (UniProt Q66814); remark: listed apart in the source
EBOV GPdTM (Ebola virus) [6] = biological target: EBOV GPdTM (Ebola virus) (UniProt Q05320); remark: listed apart in the source
RESTV GP (Reston virus) [7] = biological target: RESTV GP (Reston virus) (UniProt Q66799); remark: listed apart in the source
SUDV GPdTM (Sudan virus) [8] = biological target: SUDV GPdTM (Sudan virus) (UniProt Q66814); remark: listed apart in the source

FVM09 (antibody)
pEC50 (EBOV GPdTM (Ebola virus) [1]): 8.14
pEC50 (SUDV GPdTM (Sudan virus) [2]): 8.01
EC50 (EBOV GPdTM (Ebola virus) [3]): 0.008 µg/mL
EC50 (RESTV GP (Reston virus) [4]): 0.01 µg/mL
EC50 (SUDV GPdTM (Sudan virus) [5]): 0.011 µg/mL
EC50 (EBOV GPdTM (Ebola virus) [6]): < 0.015 µg/mL
EC50 (RESTV GP (Reston virus) [7]): < 0.015 µg/mL
EC50 (SUDV GPdTM (Sudan virus) [8]): < 0.015 µg/mL
